The source of these data is the supplement of paper PMC10065799, “High-throughput profiling of sequence recognition by tyrosine kinases and SH2 domains using bacterial peptide display” (eLife, 2023).

One data set concerns the target SHP2-C SH2. The experiment in a line: SH2 binding enrichment of the phosphorylated peptide, bacterial display (enrichment ratio); higher = better substrate or ligand; peptides without Tyr show the background.
The target of a further data set is c-Src SH2. The data set is described as above.
A further data set addresses Grb2 SH2 (UniProt P62993). The data set is described as above.
The target in the next data set is MERTK (UniProt Q12866). The experiment in a line: phosphorylation enrichment, bacterial display (enrichment ratio); higher = better substrate or ligand; peptides without Tyr show the background.
In another data set the target is Fyn (UniProt P06241). The data set is described as above.
A further data set deals with Jak2 (UniProt O60674). Described as above.
Another data set deals with c-Src. The description is as above.
A further data set has as its target FGFR3 (UniProt P22607). The data set is described as above.
The next data set concerns the target EPHB1 (UniProt P54762). The description is as above.
Another data set deals with EPHB2 (UniProt P29323). The description is as above.
The test system of a further data set is AncSZ. Described as above.
Another data set deals with c-Abl (mouse). The description is as above.
Another data set concerns Fer (mouse). The data set is described as above.
The next data set addresses Hck (UniProt P08631). The description is as above.
The next data set has as its target Fes (UniProt P07332). The data set is described as above.
A further data set has as its target FGFR1 (UniProt P11362). The data set is described as above.
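Throughout, for SH2 binding enrichment of the phosphorylated peptide, bacterial display: peptide library displayed on the E. coli surface as eCPX fusions, selected cells deep-sequenced, score is each peptide's frequency after selection divided by its frequency in the input.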
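Throughout, for phosphorylation enrichment, bacterial display: 11-residue human phosphosite peptides and single-mutation variants displayed on the E. coli surface, counted by deep sequencing, each peptide's frequency after selection divided by its frequency in the unselected input library; frequency after pTyr selection over input frequency; kinase dosed for 20-30% of maximal phosphorylation in three min.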

Jak2, sequence (O60674 whole entry, looked up): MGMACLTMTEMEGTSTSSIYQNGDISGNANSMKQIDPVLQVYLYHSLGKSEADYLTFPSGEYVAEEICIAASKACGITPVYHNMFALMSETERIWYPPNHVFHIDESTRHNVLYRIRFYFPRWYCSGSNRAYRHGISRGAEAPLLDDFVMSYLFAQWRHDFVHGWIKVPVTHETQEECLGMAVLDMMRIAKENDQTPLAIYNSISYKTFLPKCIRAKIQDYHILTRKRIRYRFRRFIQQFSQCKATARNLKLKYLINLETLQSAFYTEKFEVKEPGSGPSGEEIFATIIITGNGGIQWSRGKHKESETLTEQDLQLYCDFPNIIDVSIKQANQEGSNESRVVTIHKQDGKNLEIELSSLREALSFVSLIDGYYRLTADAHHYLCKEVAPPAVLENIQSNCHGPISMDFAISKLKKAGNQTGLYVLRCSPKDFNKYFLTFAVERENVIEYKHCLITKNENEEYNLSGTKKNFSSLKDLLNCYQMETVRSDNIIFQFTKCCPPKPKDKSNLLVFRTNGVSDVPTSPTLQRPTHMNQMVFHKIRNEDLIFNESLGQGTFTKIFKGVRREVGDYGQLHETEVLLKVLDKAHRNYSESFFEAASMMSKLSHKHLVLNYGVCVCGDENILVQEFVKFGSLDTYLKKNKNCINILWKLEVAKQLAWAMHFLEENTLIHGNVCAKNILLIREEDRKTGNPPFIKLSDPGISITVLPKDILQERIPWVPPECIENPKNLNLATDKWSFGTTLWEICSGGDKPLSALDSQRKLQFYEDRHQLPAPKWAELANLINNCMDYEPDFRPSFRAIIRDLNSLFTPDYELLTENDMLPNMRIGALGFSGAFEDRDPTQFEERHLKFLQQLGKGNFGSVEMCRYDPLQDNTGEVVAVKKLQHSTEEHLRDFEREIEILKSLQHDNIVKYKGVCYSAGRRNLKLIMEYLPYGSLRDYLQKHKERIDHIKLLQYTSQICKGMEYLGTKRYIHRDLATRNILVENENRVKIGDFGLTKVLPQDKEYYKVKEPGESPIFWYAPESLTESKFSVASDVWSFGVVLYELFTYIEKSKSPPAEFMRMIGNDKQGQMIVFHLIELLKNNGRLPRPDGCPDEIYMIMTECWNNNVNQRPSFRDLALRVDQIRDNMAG
MERTK, sequence (Q12866 whole entry, looked up): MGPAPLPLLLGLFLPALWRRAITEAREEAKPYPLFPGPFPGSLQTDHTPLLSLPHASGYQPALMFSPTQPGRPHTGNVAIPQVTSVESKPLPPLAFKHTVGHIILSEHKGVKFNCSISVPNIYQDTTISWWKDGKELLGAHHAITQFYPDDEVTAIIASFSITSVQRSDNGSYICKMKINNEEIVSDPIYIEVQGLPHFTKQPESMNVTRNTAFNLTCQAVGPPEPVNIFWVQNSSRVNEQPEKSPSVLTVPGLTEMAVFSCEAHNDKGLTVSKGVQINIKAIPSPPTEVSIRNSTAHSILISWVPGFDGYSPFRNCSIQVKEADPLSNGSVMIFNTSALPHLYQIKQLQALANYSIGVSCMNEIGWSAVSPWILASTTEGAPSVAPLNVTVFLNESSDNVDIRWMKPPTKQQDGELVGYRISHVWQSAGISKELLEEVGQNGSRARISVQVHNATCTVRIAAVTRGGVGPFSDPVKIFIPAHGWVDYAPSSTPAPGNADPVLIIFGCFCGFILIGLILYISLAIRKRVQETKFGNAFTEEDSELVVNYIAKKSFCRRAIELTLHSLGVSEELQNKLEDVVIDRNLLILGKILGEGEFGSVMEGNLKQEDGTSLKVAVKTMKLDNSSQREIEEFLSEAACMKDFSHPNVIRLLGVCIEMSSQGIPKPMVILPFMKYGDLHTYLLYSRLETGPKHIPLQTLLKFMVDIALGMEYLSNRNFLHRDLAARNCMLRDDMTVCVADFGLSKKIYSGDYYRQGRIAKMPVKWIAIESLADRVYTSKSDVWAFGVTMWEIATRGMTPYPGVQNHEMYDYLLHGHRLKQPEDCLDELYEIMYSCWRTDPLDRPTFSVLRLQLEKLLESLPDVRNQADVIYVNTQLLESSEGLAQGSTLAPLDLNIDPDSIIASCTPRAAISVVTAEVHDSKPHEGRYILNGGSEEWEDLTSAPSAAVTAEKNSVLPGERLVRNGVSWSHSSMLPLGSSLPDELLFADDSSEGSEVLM
Grb2 SH2, sequence (P62993 whole entry, looked up): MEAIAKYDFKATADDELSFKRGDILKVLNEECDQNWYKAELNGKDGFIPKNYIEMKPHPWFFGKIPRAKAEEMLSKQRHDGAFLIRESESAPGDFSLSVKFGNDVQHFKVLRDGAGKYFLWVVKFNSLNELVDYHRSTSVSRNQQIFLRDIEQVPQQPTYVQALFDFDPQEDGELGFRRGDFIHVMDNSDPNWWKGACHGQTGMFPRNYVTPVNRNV
Hck, sequence (P08631 whole entry, looked up): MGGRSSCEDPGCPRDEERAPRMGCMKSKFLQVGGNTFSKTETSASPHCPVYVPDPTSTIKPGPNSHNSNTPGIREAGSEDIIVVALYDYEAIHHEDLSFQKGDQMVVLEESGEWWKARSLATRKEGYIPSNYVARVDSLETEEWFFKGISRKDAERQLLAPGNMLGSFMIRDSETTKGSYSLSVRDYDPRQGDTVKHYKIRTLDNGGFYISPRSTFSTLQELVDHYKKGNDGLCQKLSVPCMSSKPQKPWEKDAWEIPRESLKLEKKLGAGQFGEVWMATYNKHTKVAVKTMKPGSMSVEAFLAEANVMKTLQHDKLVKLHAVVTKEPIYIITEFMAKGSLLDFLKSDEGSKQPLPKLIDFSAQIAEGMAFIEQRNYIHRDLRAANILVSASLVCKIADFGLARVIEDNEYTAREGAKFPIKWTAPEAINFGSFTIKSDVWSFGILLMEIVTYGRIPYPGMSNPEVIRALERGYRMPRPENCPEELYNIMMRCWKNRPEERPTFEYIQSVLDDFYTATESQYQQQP
FGFR1, sequence (P11362 whole entry, looked up, the tested form may be a part): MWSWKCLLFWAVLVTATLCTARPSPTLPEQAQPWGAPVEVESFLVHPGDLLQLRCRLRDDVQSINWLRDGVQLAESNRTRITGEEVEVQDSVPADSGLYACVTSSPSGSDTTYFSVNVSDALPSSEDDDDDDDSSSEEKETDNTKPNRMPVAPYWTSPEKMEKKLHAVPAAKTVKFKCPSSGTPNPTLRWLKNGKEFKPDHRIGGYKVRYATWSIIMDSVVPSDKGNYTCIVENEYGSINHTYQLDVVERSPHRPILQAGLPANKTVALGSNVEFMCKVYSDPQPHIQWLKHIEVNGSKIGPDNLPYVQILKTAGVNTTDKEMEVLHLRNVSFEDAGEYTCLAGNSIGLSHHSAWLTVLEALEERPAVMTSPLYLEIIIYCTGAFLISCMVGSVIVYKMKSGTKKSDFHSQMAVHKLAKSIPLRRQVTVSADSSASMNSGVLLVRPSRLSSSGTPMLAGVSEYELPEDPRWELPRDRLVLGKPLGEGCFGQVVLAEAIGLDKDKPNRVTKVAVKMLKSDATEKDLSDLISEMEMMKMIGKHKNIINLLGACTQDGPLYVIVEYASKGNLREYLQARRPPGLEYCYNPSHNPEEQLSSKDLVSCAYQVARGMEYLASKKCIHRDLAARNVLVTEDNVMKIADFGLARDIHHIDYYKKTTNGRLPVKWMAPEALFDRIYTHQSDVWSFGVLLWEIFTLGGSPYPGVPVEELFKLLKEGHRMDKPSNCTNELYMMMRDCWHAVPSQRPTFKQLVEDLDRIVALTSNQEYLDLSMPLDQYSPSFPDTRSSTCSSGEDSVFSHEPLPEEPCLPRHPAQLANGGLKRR
EPHB2, sequence (P29323 whole entry, looked up): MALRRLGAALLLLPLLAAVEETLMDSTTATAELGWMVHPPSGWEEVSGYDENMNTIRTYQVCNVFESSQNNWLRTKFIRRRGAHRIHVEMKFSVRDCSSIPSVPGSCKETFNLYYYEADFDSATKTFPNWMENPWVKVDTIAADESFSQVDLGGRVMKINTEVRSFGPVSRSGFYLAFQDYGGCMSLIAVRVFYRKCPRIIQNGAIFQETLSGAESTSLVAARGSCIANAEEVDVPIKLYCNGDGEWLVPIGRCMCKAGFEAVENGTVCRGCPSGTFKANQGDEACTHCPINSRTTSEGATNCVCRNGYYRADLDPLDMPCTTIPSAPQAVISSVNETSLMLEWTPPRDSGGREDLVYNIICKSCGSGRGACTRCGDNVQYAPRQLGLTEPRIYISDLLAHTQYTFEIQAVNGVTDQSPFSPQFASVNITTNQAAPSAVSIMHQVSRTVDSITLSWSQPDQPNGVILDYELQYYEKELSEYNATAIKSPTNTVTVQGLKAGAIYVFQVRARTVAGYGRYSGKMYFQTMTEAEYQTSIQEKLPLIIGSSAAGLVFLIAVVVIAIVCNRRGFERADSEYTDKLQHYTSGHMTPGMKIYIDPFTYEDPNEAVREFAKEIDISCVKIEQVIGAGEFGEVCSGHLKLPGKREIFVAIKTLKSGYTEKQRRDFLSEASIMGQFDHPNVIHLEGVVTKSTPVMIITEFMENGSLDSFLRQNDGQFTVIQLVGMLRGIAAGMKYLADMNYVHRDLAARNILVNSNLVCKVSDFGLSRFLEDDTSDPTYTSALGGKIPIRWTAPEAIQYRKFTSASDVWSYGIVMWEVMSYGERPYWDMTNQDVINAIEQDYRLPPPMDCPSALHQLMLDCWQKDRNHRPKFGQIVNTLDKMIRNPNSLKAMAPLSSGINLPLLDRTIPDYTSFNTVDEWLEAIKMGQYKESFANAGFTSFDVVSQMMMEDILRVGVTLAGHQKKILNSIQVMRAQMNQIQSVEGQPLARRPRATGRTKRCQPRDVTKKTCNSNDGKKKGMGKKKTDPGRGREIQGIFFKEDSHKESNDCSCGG

In the case of RTLIRYANLSN [BEST1_Y131_G135S], the SH2 binding enrichment with SHP2-C SH2 was 8.49; with c-Src SH2, 1.59; in the data set with Grb2 SH2, 6.11. Further, the phosphorylation enrichment was 0.631 with MERTK; 0.79 with Fyn; 0.792 with Jak2; 0.65 in the data set on c-Src; 0.757 with FGFR3; 0.733 with EPHB1. Besides, the phosphorylation enrichment turned out to be 0.71 with EPHB2; 0.774 in the data set with AncSZ; 0.654 in the data set on c-Abl (mouse); 0.566 in the data set with Fer (mouse); 0.675 with Hck; 1.02 in the data set with Fes. Moreover, the phosphorylation enrichment with FGFR1 worked out at 0.801.

As for RTLSEYARRHV [RERE_Y1259_P1262R], the SH2 binding enrichment was determined as 0.567 with SHP2-C SH2, 0.448 in the data set with c-Src SH2 and 0.826 with Grb2 SH2. For the same sequence, the phosphorylation enrichment with MERTK was found to be 0.572; with Fyn, 0.338; with Jak2, 0.596; in the data set with c-Src, 0.446; with FGFR3, 0.494; with EPHB1 it was 0.353. Further, the phosphorylation enrichment with EPHB2 turned out to be 0.373; with AncSZ, 0.613; in the data set on c-Abl (mouse), 2.14; in the data set with Fer (mouse), 0.404; with Hck, 0.461; with Fes it was 0.629. Further, the phosphorylation enrichment with FGFR1 amounted to 0.393.

On to RVGVDYEGRGC [PLOD1_Y675_G678R], for which the SH2 binding enrichment in the data set with SHP2-C SH2 is 0.797; with c-Src SH2, 0.638; in the data set with Grb2 SH2, 0.902. In addition, the phosphorylation enrichment with MERTK is 0.59; with Fyn, 0.542; with Jak2 it was 0.616; in the data set on c-Src, 0.424; with FGFR3 it was 0.709; with EPHB1, 0.69. Besides, the phosphorylation enrichment was 0.464 in the data set with EPHB2; 1.01 in the data set with AncSZ; 0.575 in the data set with c-Abl (mouse); 0.51 in the data set on Fer (mouse); 0.528 with Hck; 1.02 with Fes. For the same sequence, in the data set with FGFR1, the phosphorylation enrichment came to 0.617.

On to RVLHNYLVWCV [ECEL1_Y400_R404C], for which the SH2 binding enrichment in the data set with SHP2-C SH2 was found to be 0.901; in the data set with c-Src SH2, 0.643; in the data set with Grb2 SH2, 0.921. The phosphorylation enrichment in the data set with MERTK is 0.631; with Fyn, 0.535; in the data set with Jak2, 1.42; in the data set with c-Src, 0.561; with FGFR3, 1.02; in the data set with EPHB1, 1.02. The phosphorylation enrichment in the data set with EPHB2 is 0.752; in the data set with AncSZ, 1.25; with c-Abl (mouse), 0.933; in the data set on Fer (mouse), 0.647; with Hck it was 0.611; with Fes, 1.5. Moreover, the phosphorylation enrichment in the data set with FGFR1 worked out at 0.773.

Take RWGQKHMTAVV [CYBA_Y72_Y72H]: the values for the SH2 binding enrichment in the data set with SHP2-C SH2, with c-Src SH2 and in the data set with Grb2 SH2 were 1.66, 1.6 and 1.68, respectively. In addition, the phosphorylation enrichment with MERTK was determined as 0.587; with Fyn, 0.699; with Jak2, 2.7; in the data set on c-Src it was 0.496; with FGFR3, 0.74; with EPHB1, 0.516. The phosphorylation enrichment in the data set with EPHB2 came out at 0.559; in the data set with AncSZ, 1.13; with c-Abl (mouse) it was 0.81; in the data set on Fer (mouse), 0.692; with Hck, 0.5; with Fes it was 1.39. Besides, the phosphorylation enrichment in the data set with FGFR1 amounted to 0.483.

For RWQQLYDTLNA [EIF3M_Y351_Q346R], the SH2 binding enrichment with SHP2-C SH2 stood at 0.695; in the data set with c-Src SH2, 0.338; with Grb2 SH2 it was 0.827. The phosphorylation enrichment with MERTK came to 6.56; in the data set with Fyn, 5.67; with Jak2, 2.43; in the data set on c-Src, 3.71; with FGFR3 it was 0.848; with EPHB1, 1.95. Further, the phosphorylation enrichment in the data set with EPHB2 is 2.02; in the data set with AncSZ it was 1.32; in the data set with c-Abl (mouse) it was 0.788; in the data set with Fer (mouse), 3.35; with Hck, 7.68; in the data set with Fes it was 1.45. Further, the phosphorylation enrichment in the data set with FGFR1 amounted to 0.574.

Consider RYLKDYGEFEV [GINS1_Y156_C152Y], for which the SH2 binding enrichment stood at 1.37 with SHP2-C SH2, 0.593 in the data set with c-Src SH2 and 0.972 with Grb2 SH2. Besides, the phosphorylation enrichment was 0.792 in the data set with MERTK; 1.54 with Fyn; 1.2 with Jak2; 1.69 in the data set on c-Src; 1.36 with FGFR3; 1.16 with EPHB1. Besides, the phosphorylation enrichment was 0.839 with EPHB2; 1.75 in the data set on AncSZ; 0.771 in the data set with c-Abl (mouse); 1 in the data set with Fer (mouse); 1 with Hck; 1.6 with Fes. Moreover, the phosphorylation enrichment with FGFR1 was 1.16.

Regarding SAAAIYMVRHP [PMP22_Y117_T118M], the SH2 binding enrichment turned out to be 1.02 with SHP2-C SH2, 0.68 with c-Src SH2 and 0.884 in the data set with Grb2 SH2. Moreover, the phosphorylation enrichment is 3.25 with MERTK; 4.97 with Fyn; 0.587 with Jak2; 5.44 with c-Src; 0.519 in the data set with FGFR3; 2.45 with EPHB1. Further, the phosphorylation enrichment in the data set with EPHB2 was determined as 1.82; in the data set with AncSZ, 0.756; in the data set on c-Abl (mouse) it was 1.65; in the data set on Fer (mouse), 0.53; with Hck, 7.71; with Fes it was 0.77. Besides, in the data set with FGFR1, the phosphorylation enrichment was 0.425.

In the case of SARFRYLLAEK [LDHB_Y173_M175L], the SH2 binding enrichment worked out at 0.593 with SHP2-C SH2, 0.437 with c-Src SH2 and 0.766 with Grb2 SH2. In addition, the phosphorylation enrichment with MERTK came out at 0.498; with Fyn, 0.514; with Jak2, 0.641; in the data set on c-Src it was 0.515; with FGFR3, 0.55; in the data set with EPHB1, 0.35. Further, the phosphorylation enrichment with EPHB2 turned out to be 0.477; in the data set with AncSZ, 0.724; in the data set on c-Abl (mouse), 0.783; with Fer (mouse), 0.452; with Hck, 0.508; with Fes it was 0.697. Besides, the phosphorylation enrichment with FGFR1 amounted to 0.439.
